Paper PMC2532728 (Nucleic Acids Research, 2008)

Target: the molecule itself
Assay: SEC

B1: recombinant ZmWHY1 (full-length mature ZmWHY1, lacking the transit peptide) (natural protein)
chain: ASSRKAAAVPACPVASPRHSDYFDPRAPPPPRGDGGYGRPPNGAQDGRVFTSYSIYKGKAALSFDPRPPLFVPLDSGAYKVAKEGFVLLQFAPAVATRQYDWTRKQVFSLSVWEIGTLLTLGPTDSCEFFHDPFKGRSEEGKVRKVLKIEPTPDGNGRFFNLSVQNRLINVDESIYIPITKGEFAVIVSTFNYIIPHLMGWSTFVSSIKPEESRPYSRPQSTSEYEWRR
stoichiometry N: 4
